B1: HDV Ribozyme (parent)
chain: GGCCGGCAUGGUCCCAGCCUCCUCGCUGGCGCCGGCUGGGCAACAUUCCGAGGGGACCGUCCCCUCGGUAAUGGCGAAUGGGACCCA

Variants of: B1
Test: self-cleavage, relative activity (ratio to wild type); higher = more cleavage; co-transcriptional

Point of comparison: GGCCGGCAUGGUCCCAGCCUCCUCGCUGGCGCCGGCUGGGCAACAUUUCGAGGGGACCGUCCCCUCGGUUAUGGCGAAUGGGACCCA [C48U A70U], self-cleavage 1.07. Against it:
- GGCCGGCAUGGUCCCAGCCUCCUCGCUGGCGCCGGCUGGGCAACAUUGCCAGGGGACCGUCCCCUCGGUAAUGGCGAAUGGGACCCA [C48G G50C] — lower, 0.939
- GGCCGGCAUGGUCCCAGCCUCCUCGCUGGCGCCGGCUGGGCAACAUUGCAAGGGGACCGUCCCCUCGGUAAUGGCGAAUGGGACCCA [C48G G50A] — lower, 0.798
- GGCCGGCAUGGUCCCAGCCUCCUCGCUGGCGCCGGCUGGGCAACAUUGCGAGGGGACCGGCCCCUCGGUAAUGGCGAAUGGGACCCA [C48G U60G] — lower, 1.01
- GGCCGGCAUGGUCCCAGCCUCCUCGCUGGCGCCGGCUGGGCAACAUUGCGAGGGGACCGCCCCCUCGGUAAUGGCGAAUGGGACCCA [C48G U60C] — lower, 0.969
- GGCCGGCAUGGUCCCAGCCUCCUCGCUGGCGCCGGCUGGGCAACAUUGCGAGGGGACCGUCCCCUCGGUAAUGGCGAAUGGAACCCA [C48G G82A] — lower, 0.403
- GGCCGGCAUGGUCCCAGCCUCCUCGCUGGCGCCGGCUGGGCAACAUUGUGAGGGGACCGUCCCCUCGGUAAUGGCGAAUGGGACCCA [C48G C49U] — higher, 1.08
- GGCCGGCAUGGUCCCAGCCUCCUCGCUGGCGCCGGCUGGGCAACAUUUCGAGGGGACCGUCCCCUCGGUGAUGGCGAAUGGGACCCA [C48U A70G] — lower, 0.997
- GGCCGGCAUGGUCCCAGCCUCCUCGCUGGCGCCGGCUGGGCAACAUUGCGAGGGGACCGUCCCCUCGGUAAUGGCGAAUGGGACGCA [C48G C85G] — lower, 0.875
- GGCCGGCAUGGUCCCAGCCUCCUCGCUGGCGCCGGCUGGGCAACAUUGCGAGGGGACCGUCCCCUCGGUAAUGGCGAAUGGGACACA [C48G C85A] — lower, 0.8
- GGCCGGCAUGGUCCCAGCCUCCUCGCUGGCGCCGGCUGGGCAACAUUGCGAGGGGACCGUCCCCUCGGUAAUGUCGAAUGGGACCCA [C48G G74U] — lower, 0.509
- GGCCGGCAUGGUCCCAGCCUCCUCGCUGGCGCCGGCUGGGCAACAUUGCGAGGGGACCGUCCCCUCGGUAAGGGCGAAUGGGACCCA [C48G U72G] — lower, 0.369
- GGCCGGCAUGGUCCCAGCCUCCUCGCUGGCGCCGGCUGGGCAACAUUUCGAGGGGUCCGUCCCCUCGGUAAUGGCGAAUGGGACCCA [C48U A56U] — lower, 0.987
- GGCCGGCAUGGUCCCAGCCUCCUCGCUGGCGCCGGCUGGGCAACAUUGCGAGCGGACCGUCCCCUCGGUAAUGGCGAAUGGGACCCA [C48G G53C] — lower, 0.776
- GGCCGGCAUGGUCCCAGCCUCCUCGCUGGCGCCGGCUGGGCAACAUUGCGAGUGGACCGUCCCCUCGGUAAUGGCGAAUGGGACCCA [C48G G53U] — lower, 0.893
- GGCCGGCAUGGUCCCAGCCUCCUCGCUGGCGCCGGCUGGGCAACAUUGCGAGGGGACCGUCCCCUCGGUAAUGGCGAAUGGGAGCCA [C48G C84G] — lower, 0.646
- GGCCGGCAUGGUCCCAGCCUCCUCGCUGGCGCCGGCUGGGCAACAUUGCGAUGGGACCGUCCCCUCGGUAAUGGCGAAUGGGACCCA [C48G G52U] — lower, 0.612
- GGCCGGCAUGGUCCCAGCCUCCUCGCUGGCGCCGGCUGGGCAACAUUUCGAGGGGACCGUCCCCUCGGUAAUGGCGAUUGGGACCCA [C48U A78U] — lower, 0.298
- GGCCGGCAUGGUCCCAGCCUCCUCGCUGGCGCCGGCUGGGCAACAUUGCGAGGGGACCGUCCCAUCGGUAAUGGCGAAUGGGACCCA [C48G C64A] — lower, 0.344
- GGCCGGCAUGGUCCCAGCCUCCUCGCUGGCGCCGGCUGGGCAACAUUGCGAGGGGACCGUCCCCUCGAUAAUGGCGAAUGGGACCCA [C48G G68A] — lower, 0.723
- GGCCGGCAUGGUCCCAGCCUCCUCGCUGGCGCCGGCUGGGCAACAUUGCGAGGGGACCGUCCCCUCGUUAAUGGCGAAUGGGACCCA [C48G G68U] — lower, 0.88
- GGCCGGCAUGGUCCCAGCCUCCUCGCUGGCGCCGGCUGGGCAACAUUGCGAGGGGACCGUACCCUCGGUAAUGGCGAAUGGGACCCA [C48G C61A] — lower, 0.927
- GGCCGGCAUGGUCCCAGCCUCCUCGCUGGCGCCGGCUGGGCAACAUUGCGAGGGGACCGUUCCCUCGGUAAUGGCGAAUGGGACCCA [C48G C61U] — lower, 0.876
- GGCCGGCAUGGUCCCAGCCUCCUCGCUGGCGCCGGCUGGGCAACAUUGCGAGGGGACCUUCCCCUCGGUAAUGGCGAAUGGGACCCA [C48G G59U] — the same, 1.07
- GGCCGGCAUGGUCCCAGCCUCCUCGCUGGCGCCGGCUGGGCAACAUUGCGAGGGGACCAUCCCCUCGGUAAUGGCGAAUGGGACCCA [C48G G59A] — lower, 0.92
- GGCCGGCAUGGUCCCAGCCUCCUCGCUGGCGCCGGCUGGGCAACAUUGCGAGGGGACCGUCCCCUCGGUAAUGGCGAAUGGGCCCCA [C48G A83C] — lower, 0.573
- GGCCGGCAUGGUCCCAGCCUCCUCGCUGGCGCCGGCUGGGCAACAUUGCGAGGGGACCGUCCCCUCGGUAAUGGCGAAUGGGGCCCA [C48G A83G] — lower, 0.779
- GGCCGGCAUGGUCCCAGCCUCCUCGCUGGCGCCGGCUGGGCAACAUUGCGAGGGGACCGUCCCCUCGGUAAUGGCGAAUGGGUCCCA [C48G A83U] — lower, 0.554
- GGCCGGCAUGGUCCCAGCCUCCUCGCUGGCGCCGGCUGGGCAACAUUGCGAGGGGACCGUCCUCUCGGUAAUGGCGAAUGGGACCCA [C48G C63U] — higher, 1.08
- GGCCGGCAUGGUCCCAGCCUCCUCGCUGGCGCCGGCUGGGCAACAUUGCGAGGGGACCGUCCACUCGGUAAUGGCGAAUGGGACCCA [C48G C63A] — lower, 0.435
- GGCCGGCAUGGUCCCAGCCUCCUCGCUGGCGCCGGCUGGGCAACAUUGCGAGGGGACCGUCCCCUCGGUAAUGGCGAAGGGGACCCA [C48G U79G] — lower, 0.795
- GGCCGGCAUGGUCCCAGCCUCCUCGCUGGCGCCGGCUGGGCAACAUUGCGAGGGGACCGUCCCCUCGGUAAUGGCGAACGGGACCCA [C48G U79C] — lower, 0.345
- GGCCGGCAUGGUCCCAGCCUCCUCGCUGGCGCCGGCUGGGCAACAUUGCGAGGGGACCGUCCCCUCUGUAAUGGCGAAUGGGACCCA [C48G G67U] — lower, 0.972
- GGCCGGCAUGGUCCCAGCCUCCUCGCUGGCGCCGGCUGGGCAACAUUGCGAGGGGACCGUCCCCUCCGUAAUGGCGAAUGGGACCCA [C48G G67C] — lower, 1
- GGCCGGCAUGGUCCCAGCCUCCUCGCUGGCGCCGGCUGGGCAACAUUGCGAGGUGACCGUCCCCUCGGUAAUGGCGAAUGGGACCCA [C48G G54U] — lower, 0.726
- GGCCGGCAUGGUCCCAGCCUCCUCGCUGGCGCCGGCUGGGCAACAUUGCGAGGCGACCGUCCCCUCGGUAAUGGCGAAUGGGACCCA [C48G G54C] — lower, 0.665
- GGCCGGCAUGGUCCCAGCCUCCUCGCUGGCGCCGGCUGGGCAACAUUGCGAGGGGACAGUCCCCUCGGUAAUGGCGAAUGGGACCCA [C48G C58A] — higher, 1.14
- GGCCGGCAUGGUCCCAGCCUCCUCGCUGGCGCCGGCUGGGCAACAUUGCGAGGGGACCGUCCCCUCGGUAAUGGAGAAUGGGACCCA [C48G C75A] — lower, 0.175
- GGCCGGCAUGGUCCCAGCCUCCUCGCUGGCGCCGGCUGGGCAACAUUGCGAGGGGACCGUCCCCUCGGUAAUGGUGAAUGGGACCCA [C48G C75U] — lower, 0.285
- GGCCGGCAUGGUCCCAGCCUCCUCGCUGGCGCCGGCUGGGCAACAUUUCGAGGGGACCGUCCCCUCGGUAAUGGCGAAUGGGCCCCA [C48U A83C] — lower, 0.906
- GGCCGGCAUGGUCCCAGCCUCCUCGCUGGCGCCGGCUGGGCAACAUUUCGAGGGGACCGUCCCCUCGGUAAUGGCGAAUGGGGCCCA [C48U A83G] — lower, 0.671
- GGCCGGCAUGGUCCCAGCCUCCUCGCUGGCGCCGGCUGGGCAACAUUUCGAGGGGACCGUCCCCUCGGUAUUGGCGAAUGGGACCCA [C48U A71U] — lower, 0.585
- GGCCGGCAUGGUCCCAGCCUCCUCGCUGGCGCCGGCUGGGCAACAUUUCGAGGGGACCGUCCCCUCGGUACUGGCGAAUGGGACCCA [C48U A71C] — lower, 0.789
- GGCCGGCAUGGUCCCAGCCUCCUCGCUGGCGCCGGCUGGGCAACAUUGCGAGGGGACCGUCCCCUCGGUAAUGGCCAAUGGGACCCA [C48G G76C] — lower, 0.867
- GGCCGGCAUGGUCCCAGCCUCCUCGCUGGCGCCGGCUGGGCAACAUUGCGAGGGGACCGUCCCCUCGGUAAUGGCUAAUGGGACCCA [C48G G76U] — lower, 0.997
- GGCCGGCAUGGUCCCAGCCUCCUCGCUGGCGCCGGCUGGGCAACAUUGCGAGGGGACCGUCCCCUCGGUAAUGGCAAAUGGGACCCA [C48G G76A] — higher, 1.12
- GGCCGGCAUGGUCCCAGCCUCCUCGCUGGCGCCGGCUGGGCAACAUUUCGAGGGGACCGUCCCCUCGGUAAUGGCGCAUGGGACCCA [C48U A77C] — lower, 0.57
- GGCCGGCAUGGUCCCAGCCUCCUCGCUGGCGCCGGCUGGGCAACAUUUCGAGGGGACCGUCCCCUCGGUAAUGGCGGAUGGGACCCA [C48U A77G] — lower, 0.612
- GGCCGGCAUGGUCCCAGCCUCCUCGCUGGCGCCGGCUGGGCAACAUUGCGAGGGAACCGUCCCCUCGGUAAUGGCGAAUGGGACCCA [C48G G55A] — lower, 0.888
- GGCCGGCAUGGUCCCAGCCUCCUCGCUGGCGCCGGCUGGGCAACAUUGCGAGGGGACCGUCCCCUCGGAAAUGGCGAAUGGGACCCA [C48G U69A] — lower, 0.956
- GGCCGGCAUGGUCCCAGCCUCCUCGCUGGCGCCGGCUGGGCAACAUUGCGAGGGGACCGUCCCCGCGGUAAUGGCGAAUGGGACCCA [C48G U65G] — lower, 0.504
- GGCCGGCAUGGUCCCAGCCUCCUCGCUGGCGCCGGCUGGGCAACAUUGCGAGGGGACCGUCCCCACGGUAAUGGCGAAUGGGACCCA [C48G U65A] — lower, 0.511
- GGCCGGCAUGGUCCCAGCCUCCUCGCUGGCGCCGGCUGGGCAACAUUGCGAGGGGACCGUCCCCCCGGUAAUGGCGAAUGGGACCCA [C48G U65C] — lower, 0.931
- GGCCGGCAUGGUCCCAGCCUCCUCGCUGGCGCCGGCUGGGCAACAUUGCGAGGGGACCGUCCCCUCGGUAAUGGCGAAUGGGACCUA [C48G C86U] — lower, 0.932
- GGCCGGCAUGGUCCCAGCCUCCUCGCUGGCGCCGGCUGGGCAACAUUGCGAGGGGACCGUCCCCUGGGUAAUGGCGAAUGGGACCCA [C48G C66G] — lower, 0.906
- GGCCGGCAUGGUCCCAGCCUCCUCGCUGGCGCCGGCUGGGCAACAUUGCGAGGGGACCGUCCCCUCGGUAAUAGCGAAUGGGACCCA [C48G G73A] — lower, 0.623
- GGCCGGCAUGGUCCCAGCCUCCUCGCUGGCGCCGGCUGGGCAACAUUGCGAGGGGACCGUCCCCUCGGUAAUUGCGAAUGGGACCCA [C48G G73U] — lower, 0.506
- GGCCGGCAUGGUCCCAGCCUCCUCGCUGGCGCCGGCUGGGCAACAUUGCGAGGGGACCGUCCCCUCGGUAAUCGCGAAUGGGACCCA [C48G G73C] — lower, 0.403
- GGCCGGCAUGGUCCCAGCCUCCUCGCUGGCGCCGGCUGGGCAACAUUGCGAGGGGACCGUCCCCUCGGUAAUGGCGAAUGGGACCCU [C48G A87U] — higher, 1.09
- GGCCGGCAUGGUCCCAGCCUCCUCGCUGGCGCCGGCUGGGCAACAUUUCGGGGGGACCGUCCCCUCGGUAAUGGCGAAUGGGACCCA [C48U A51G] — lower, 0.618
- GGCCGGCAUGGUCCCAGCCUCCUCGCUGGCGCCGGCUGGGCAACAUUUCGUGGGGACCGUCCCCUCGGUAAUGGCGAAUGGGACCCA [C48U A51U] — the same, 1.07
- GGCCGGCAUGGUCCCAGCCUCCUCGCUGGCGCCGGCUGGGCAACAUUUCGCGGGGACCGUCCCCUCGGUAAUGGCGAAUGGGACCCA [C48U A51C] — lower, 0.919
- GGCCGGCAUGGUCCCAGCCUCCUCGCUGGCGCCGGCUGGGCAACAUUGCGAGGGGACCGUCCCCUCGGUAAUGGCGAAUAGGACCCA [C48G G80A] — lower, 0.4
- GGCCGGCAUGGUCCCAGCCUCCUCGCUGGCGCCGGCUGGGCAACAUUGCGAGGGGACCGUCCCCUCGGUAAUGGCGAAUGUGACCCA [C48G G81U] — lower, 0.424

Reference: the RNAGym collection of RNA variant scans (doi:10.7554/elife.80360)
